According to patent US20100215651A1 (GLENMARK PHARMACEUTICALS S A, published 2010):

B1: VH16 R94K/VL43 V3Q/T7S/Y32F/P44I/N92A (antibody, human IgG1, kappa, V domains shown)
VH: QVQLVQSGGGVVQPGRSLRLSCAASGVSLPDYGVSWVRQAPGKGLEWVAVIWGSETTYYNSALKSRFTISRDNSKNTLYLQMNSLRAEDTAVYYCAKHYYYGGSYAMDYWGQGTLVTVSS
VL: DIQMTQSPSSLSASVGDRVTITCRASQDISKFLNWYQQKPGKAIKLLIYHTSRLHSGVPSRFSGSGSGTDFTLTISSLQPEDFATYYCQQGATLPYTFGPGTKVDIKR
notes: human IgG1/kappa
B2: VH16 Y32F/R94K/VL43 V3Q/T7S/Y32F/N92A (antibody, human IgG1, name in Kabat numbering, V domains shown)
VH: QVQLVQSGGGVVQPGRSLRLSCAASGVSLPDFGVSWVRQAPGKGLEWVAVIWGSETTYYNSALKSRFTISRDNSKNTLYLQMNSLRAEDTAVYYCAKHYYYGGSYAMDYWGQGTLVTVSS
VL: DIQMTQSPSSLSASVGDRVTITCRASQDISKFLNWYQQKPGKAPKLLIYHTSRLHSGVPSRFSGSGSGTDFTLTISSLQPEDFATYYCQQGATLPYTFGPGTKVDIKR
notes: substitutions in Kabat numbering
B3: VH16-R71K/VL43 (antibody, human IgG1, name in Kabat numbering, V domains shown)
VH: QVQLVQSGGGVVQPGRSLRLSCAASGVSLPDYGVSWVRQAPGKGLEWVAVIWGSETTYYNSALKSRFTISKDNSKNTLYLQMNSLRAEDTAVYYCARHYYYGGSYAMDYWGQGTLVTVSS
VL: DIVMTQTPSSLSASVGDRVTITCRASQDISKYLNWYQQKPGKAPKLLIYHTSRLHSGVPSRFSGSGSGTDFTLTISSLQPEDFATYYCQQGNTLPYTFGPGTKVDIKR
notes: as for B2
B4: VH16-F67L/VL43-Y87F (antibody, human IgG1, name in Kabat numbering, V domains shown)
VH: QVQLVQSGGGVVQPGRSLRLSCAASGVSLPDYGVSWVRQAPGKGLEWVAVIWGSETTYYNSALKSRLTISRDNSKNTLYLQMNSLRAEDTAVYYCARHYYYGGSYAMDYWGQGTLVTVSS
VL: DIVMTQTPSSLSASVGDRVTITCRASQDISKYLNWYQQKPGKAPKLLIYHTSRLHSGVPSRFSGSGSGTDFTLTISSLQPEDFATYFCQQGNTLPYTFGPGTKVDIKR
notes: as for B2
B5: VH16 R94K Y32F VL43 (antibody, human IgG1, name in Kabat numbering, V domains shown)
VH: QVQLVQSGGGVVQPGRSLRLSCAASGVSLPDFGVSWVRQAPGKGLEWVAVIWGSETTYYNSALKSRFTISRDNSKNTLYLQMNSLRAEDTAVYYCAKHYYYGGSYAMDYWGQGTLVTVSS
VL: DIVMTQTPSSLSASVGDRVTITCRASQDISKYLNWYQQKPGKAPKLLIYHTSRLHSGVPSRFSGSGSGTDFTLTISSLQPEDFATYYCQQGNTLPYTFGPGTKVDIKR
notes: as for B2
B6: VH16-F67L/VL43-F71Y (antibody, human IgG1, name in Kabat numbering, V domains shown)
VH: QVQLVQSGGGVVQPGRSLRLSCAASGVSLPDYGVSWVRQAPGKGLEWVAVIWGSETTYYNSALKSRLTISRDNSKNTLYLQMNSLRAEDTAVYYCARHYYYGGSYAMDYWGQGTLVTVSS
VL: DIVMTQTPSSLSASVGDRVTITCRASQDISKYLNWYQQKPGKAPKLLIYHTSRLHSGVPSRFSGSGSGTDYTLTISSLQPEDFATYYCQQGNTLPYTFGPGTKVDIKR
notes: as for B2
B7: VH16 R94K/Y97F/VL43 V3Q/T7S/N92A (antibody, human IgG1, name in Kabat numbering, V domains shown)
VH: QVQLVQSGGGVVQPGRSLRLSCAASGVSLPDYGVSWVRQAPGKGLEWVAVIWGSETTYYNSALKSRFTISRDNSKNTLYLQMNSLRAEDTAVYYCAKHYFYGGSYAMDYWGQGTLVTVSS
VL: DIQMTQSPSSLSASVGDRVTITCRASQDISKYLNWYQQKPGKAPKLLIYHTSRLHSGVPSRFSGSGSGTDFTLTISSLQPEDFATYYCQQGATLPYTFGPGTKVDIKR
notes: as for B2
B8: VH16 Y32F/R94K/VL43 V3Q/T7S/N92A (antibody, human IgG1, name in Kabat numbering, V domains shown)
VH: QVQLVQSGGGVVQPGRSLRLSCAASGVSLPDFGVSWVRQAPGKGLEWVAVIWGSETTYYNSALKSRFTISRDNSKNTLYLQMNSLRAEDTAVYYCAKHYYYGGSYAMDYWGQGTLVTVSS
VL: DIQMTQSPSSLSASVGDRVTITCRASQDISKYLNWYQQKPGKAPKLLIYHTSRLHSGVPSRFSGSGSGTDFTLTISSLQPEDFATYYCQQGATLPYTFGPGTKVDIKR
notes: as for B2
B9: VH16 R94K Y96F VL43 (antibody, human IgG1, name in Kabat numbering, V domains shown)
VH: QVQLVQSGGGVVQPGRSLRLSCAASGVSLPDYGVSWVRQAPGKGLEWVAVIWGSETTYYNSALKSRFTISRDNSKNTLYLQMNSLRAEDTAVYYCAKHFYYGGSYAMDYWGQGTLVTVSS
VL: DIVMTQTPSSLSASVGDRVTITCRASQDISKYLNWYQQKPGKAPKLLIYHTSRLHSGVPSRFSGSGSGTDFTLTISSLQPEDFATYYCQQGNTLPYTFGPGTKVDIKR
notes: as for B2
B10: VH16-L78V/VL43 (antibody, human IgG1, name in Kabat numbering, V domains shown)
VH: QVQLVQSGGGVVQPGRSLRLSCAASGVSLPDYGVSWVRQAPGKGLEWVAVIWGSETTYYNSALKSRFTISRDNSKNTVYLQMNSLRAEDTAVYYCARHYYYGGSYAMDYWGQGTLVTVSS
VL: DIVMTQTPSSLSASVGDRVTITCRASQDISKYLNWYQQKPGKAPKLLIYHTSRLHSGVPSRFSGSGSGTDFTLTISSLQPEDFATYYCQQGNTLPYTFGPGTKVDIKR
notes: as for B2
B11: VH16-L78V/VL43-F71Y (antibody, human IgG1, name in Kabat numbering, V domains shown)
VH: QVQLVQSGGGVVQPGRSLRLSCAASGVSLPDYGVSWVRQAPGKGLEWVAVIWGSETTYYNSALKSRFTISRDNSKNTVYLQMNSLRAEDTAVYYCARHYYYGGSYAMDYWGQGTLVTVSS
VL: DIVMTQTPSSLSASVGDRVTITCRASQDISKYLNWYQQKPGKAPKLLIYHTSRLHSGVPSRFSGSGSGTDYTLTISSLQPEDFATYYCQQGNTLPYTFGPGTKVDIKR
notes: as for B2
B12: VH16 R94K Y97F VL43 (antibody, human IgG1, name in Kabat numbering, V domains shown)
VH: QVQLVQSGGGVVQPGRSLRLSCAASGVSLPDYGVSWVRQAPGKGLEWVAVIWGSETTYYNSALKSRFTISRDNSKNTLYLQMNSLRAEDTAVYYCAKHYFYGGSYAMDYWGQGTLVTVSS
VL: DIVMTQTPSSLSASVGDRVTITCRASQDISKYLNWYQQKPGKAPKLLIYHTSRLHSGVPSRFSGSGSGTDFTLTISSLQPEDFATYYCQQGNTLPYTFGPGTKVDIKR
notes: as for B2
B13: VH16-L78V/VL43-Y87F (antibody, human IgG1, name in Kabat numbering, V domains shown)
VH: QVQLVQSGGGVVQPGRSLRLSCAASGVSLPDYGVSWVRQAPGKGLEWVAVIWGSETTYYNSALKSRFTISRDNSKNTVYLQMNSLRAEDTAVYYCARHYYYGGSYAMDYWGQGTLVTVSS
VL: DIVMTQTPSSLSASVGDRVTITCRASQDISKYLNWYQQKPGKAPKLLIYHTSRLHSGVPSRFSGSGSGTDFTLTISSLQPEDFATYFCQQGNTLPYTFGPGTKVDIKR
notes: as for B2
B14: VH16 R94K Y98F VL43 (antibody, human IgG1, name in Kabat numbering, V domains shown)
VH: QVQLVQSGGGVVQPGRSLRLSCAASGVSLPDYGVSWVRQAPGKGLEWVAVIWGSETTYYNSALKSRFTISRDNSKNTLYLQMNSLRAEDTAVYYCAKHYYFGGSYAMDYWGQGTLVTVSS
VL: DIVMTQTPSSLSASVGDRVTITCRASQDISKYLNWYQQKPGKAPKLLIYHTSRLHSGVPSRFSGSGSGTDFTLTISSLQPEDFATYYCQQGNTLPYTFGPGTKVDIKR
notes: as for B2
B15: VH16-G42R/VL43-P44V (antibody, human IgG1, name in Kabat numbering, V domains shown)
VH: QVQLVQSGGGVVQPGRSLRLSCAASGVSLPDYGVSWVRQAPRKGLEWVAVIWGSETTYYNSALKSRFTISRDNSKNTLYLQMNSLRAEDTAVYYCARHYYYGGSYAMDYWGQGTLVTVSS
VL: DIVMTQTPSSLSASVGDRVTITCRASQDISKYLNWYQQKPGKAVKLLIYHTSRLHSGVPSRFSGSGSGTDFTLTISSLQPEDFATYYCQQGNTLPYTFGPGTKVDIKR
notes: as for B2

molecular target: T1, human CD19 (human, UniProt P15391 20-556); test: flow cytometry, Raji cells, MPF vs chimeric FMC63
T1 construct: CD19 as expressed on Raji, NALM-6 and SU-DHL-6 cells; also called CD19 antigen; B-cell surface antigen B4
T1 sequence: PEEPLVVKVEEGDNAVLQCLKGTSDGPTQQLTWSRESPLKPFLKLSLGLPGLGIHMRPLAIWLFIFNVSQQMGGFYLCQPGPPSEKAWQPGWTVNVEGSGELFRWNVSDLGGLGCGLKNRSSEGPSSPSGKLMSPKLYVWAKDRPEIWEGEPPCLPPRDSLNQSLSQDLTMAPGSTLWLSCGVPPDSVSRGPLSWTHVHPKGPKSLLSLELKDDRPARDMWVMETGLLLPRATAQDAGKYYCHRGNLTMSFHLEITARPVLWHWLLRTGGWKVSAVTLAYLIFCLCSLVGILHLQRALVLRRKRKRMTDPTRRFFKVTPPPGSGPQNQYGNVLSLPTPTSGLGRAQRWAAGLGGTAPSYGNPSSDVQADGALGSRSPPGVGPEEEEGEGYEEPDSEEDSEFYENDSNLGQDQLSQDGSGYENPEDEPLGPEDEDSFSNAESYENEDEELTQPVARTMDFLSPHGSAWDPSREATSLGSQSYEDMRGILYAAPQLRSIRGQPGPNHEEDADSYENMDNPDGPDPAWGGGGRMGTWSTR
Method: Binding of the CD19 humanized monoclonal antibodies by flow cytometry to Raji tumor cells (human Burkitt lymphoma, DSMZ ACC319), NALM-6 (human B cell precursor leukemia, DSMZ ACC128) and SU-DHL-6 (human B cell lymphoma, DSMZ ACC572) (all cell lines from DSMZ Braunschweig, Deutschland) was assessed. Cells were incubated with serial dilutions of each humanized monoclonal antibody. An irrelevant human IgG1 was used as a negative control. The cells were washed and detected by a phycoerythrin-labeled (PE) anti-human secondary antibody (eBioscience, CA, USA) and analyzed by flow cytometry. […] From MFI versus antibody concentration curves, Mid-Point Fluorescence (MPF) value for each anti-CD19 humanized antibody was calculated using the software GraphPad Prism 5 (CA, USA).

First: B1
Second: B3
The “relative MPF (% of chimeric FMC63)” value of the first is higher: 111% for the first, 4.43% for the second.

Going from B4 to B5, the “relative MPF (% of chimeric FMC63)” value rises from 4.35% to 62.5%.

First: B6
Second: B8
The “relative MPF (% of chimeric FMC63)” value of the first is lower: 6.54% for the first, 58.8% for the second.

Going from B9 to B10, the “relative MPF (% of chimeric FMC63)” value rises from 5.36% to 10.8%.

Compared with B11, B12 is higher in “relative MPF (% of chimeric FMC63)” value: 12.3% for the first, 72.8% for the second.

Going from B13 to B14, the “relative MPF (% of chimeric FMC63)” value rises from 17.9% to 34.1%.

In the case of B15, the “relative MPF (% of chimeric FMC63)” value is reported as 8.33%.

B2: binds.
B7: binds.
